# Measurements as given in paper PMC4895014.
# Values joined by “and” are separate entries in the source; they are usually repeats but may differ in a detail not shown here. Equal entries are not always repeated.
# Molecular target: recombinant full-length H7 hemagglutinin of A/Anhui/1/2013 (H7N9) influenza virus (influenza A virus A/Anhui/1/2013 (H7N9))
# Assay: […]; 500 ug/ml in PBS, […]
substance,measurement,value
recombinant full-length H7 hemagglutinin of A/Anhui/1/2013 (H7N9) influenza virus (natural protein),stoichiometry N (units (HA molecules per complex)),6 and 7 and 8
